Experimental data: publication PMC10279549 (Blood Advances, 2023)

Legend:
Assay in all cases: SPR
[1] = target: Glu-Gly-Arg-chloromethylketone active site-blocked activated protein C (EGR-APC)
[2] = target: Full-length wild-type recombinant factor V (FV-WT) (human, UniProt P12259 29-2224)
[3] = target: Full-length recombinant factor V W1920R (FV Nara) (human, UniProt P12259 29-2224, W1920R)
[4] = target: Full-length recombinant factor V R506Q (FV Leiden) (human, UniProt P12259 29-2224, R506Q)
Chain of Full-length recombinant factor V R506Q (FV Leiden) (P12259 29-2224 R534Q): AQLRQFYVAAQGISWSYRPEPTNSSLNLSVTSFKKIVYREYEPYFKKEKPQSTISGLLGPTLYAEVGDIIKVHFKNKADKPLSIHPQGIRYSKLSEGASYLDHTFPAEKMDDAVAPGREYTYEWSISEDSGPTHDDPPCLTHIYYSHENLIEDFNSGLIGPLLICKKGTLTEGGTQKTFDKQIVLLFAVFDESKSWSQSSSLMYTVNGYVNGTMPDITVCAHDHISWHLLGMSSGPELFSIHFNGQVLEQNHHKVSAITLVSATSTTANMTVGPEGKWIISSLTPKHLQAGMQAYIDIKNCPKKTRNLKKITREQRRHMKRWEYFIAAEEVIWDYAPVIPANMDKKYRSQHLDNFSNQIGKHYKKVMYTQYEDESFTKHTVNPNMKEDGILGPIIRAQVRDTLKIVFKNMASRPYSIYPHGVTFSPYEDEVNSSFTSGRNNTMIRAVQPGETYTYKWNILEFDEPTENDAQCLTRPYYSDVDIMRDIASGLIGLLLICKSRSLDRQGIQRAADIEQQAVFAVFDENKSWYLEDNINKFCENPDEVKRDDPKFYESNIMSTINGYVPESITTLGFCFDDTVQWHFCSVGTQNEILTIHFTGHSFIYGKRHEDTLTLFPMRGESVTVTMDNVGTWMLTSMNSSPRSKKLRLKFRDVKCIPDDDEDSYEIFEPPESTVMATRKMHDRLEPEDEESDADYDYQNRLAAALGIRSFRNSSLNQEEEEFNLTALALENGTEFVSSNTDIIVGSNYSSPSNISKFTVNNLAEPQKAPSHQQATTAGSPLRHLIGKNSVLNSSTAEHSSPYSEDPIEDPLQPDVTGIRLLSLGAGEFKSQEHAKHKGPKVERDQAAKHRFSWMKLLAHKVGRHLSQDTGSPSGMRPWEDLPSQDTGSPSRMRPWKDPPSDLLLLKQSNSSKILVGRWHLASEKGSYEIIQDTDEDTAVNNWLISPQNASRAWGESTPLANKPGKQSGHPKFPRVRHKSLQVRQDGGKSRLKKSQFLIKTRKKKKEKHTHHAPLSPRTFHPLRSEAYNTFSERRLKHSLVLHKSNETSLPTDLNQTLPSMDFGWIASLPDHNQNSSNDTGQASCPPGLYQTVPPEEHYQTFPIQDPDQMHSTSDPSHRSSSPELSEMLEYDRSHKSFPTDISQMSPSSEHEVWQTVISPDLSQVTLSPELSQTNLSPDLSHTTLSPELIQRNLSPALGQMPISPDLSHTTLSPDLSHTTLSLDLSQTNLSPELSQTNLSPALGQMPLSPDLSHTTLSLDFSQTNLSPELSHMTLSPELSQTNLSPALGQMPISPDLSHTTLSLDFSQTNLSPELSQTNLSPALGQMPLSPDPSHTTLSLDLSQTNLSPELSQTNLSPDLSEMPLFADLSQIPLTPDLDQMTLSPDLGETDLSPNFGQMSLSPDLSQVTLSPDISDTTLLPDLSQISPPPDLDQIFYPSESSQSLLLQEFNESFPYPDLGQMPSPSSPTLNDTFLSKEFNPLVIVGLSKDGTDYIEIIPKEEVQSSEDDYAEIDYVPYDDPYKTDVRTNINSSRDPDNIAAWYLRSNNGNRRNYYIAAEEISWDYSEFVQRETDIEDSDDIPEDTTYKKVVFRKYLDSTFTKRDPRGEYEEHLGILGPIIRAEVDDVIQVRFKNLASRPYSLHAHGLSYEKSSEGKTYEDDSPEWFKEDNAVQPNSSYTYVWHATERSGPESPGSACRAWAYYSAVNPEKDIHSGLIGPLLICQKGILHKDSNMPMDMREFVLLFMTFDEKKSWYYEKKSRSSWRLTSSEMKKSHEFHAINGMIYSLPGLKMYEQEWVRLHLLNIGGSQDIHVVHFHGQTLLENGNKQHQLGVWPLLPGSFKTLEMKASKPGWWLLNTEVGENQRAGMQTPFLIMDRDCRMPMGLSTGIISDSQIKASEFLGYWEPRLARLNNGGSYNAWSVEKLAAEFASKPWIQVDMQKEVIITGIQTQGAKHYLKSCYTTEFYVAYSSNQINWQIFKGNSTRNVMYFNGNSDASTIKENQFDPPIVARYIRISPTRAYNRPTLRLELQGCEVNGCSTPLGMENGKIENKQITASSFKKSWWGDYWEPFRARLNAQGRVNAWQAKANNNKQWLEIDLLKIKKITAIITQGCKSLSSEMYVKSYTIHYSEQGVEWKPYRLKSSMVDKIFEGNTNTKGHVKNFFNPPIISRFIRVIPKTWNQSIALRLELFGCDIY

Chain of Full-length recombinant factor V W1920R (FV Nara) (P12259 29-2224 W1948R): as the sequence (P12259 29-2224 R534Q) above, with Q506R, W1920R counted along it
Chain of Full-length wild-type recombinant factor V (FV-WT) (P12259 29-2224): as the sequence (P12259 29-2224 R534Q) above, with Q506R counted along it

| Molecule | Kd [1] | koff [1] | kon [1] | Kd [2] | koff [2] | kon [2] | Kd [3] | koff [3] | kon [3] | Kd [4] | koff [4] | kon [4] |
| --- | --- | --- | --- | --- | --- | --- | --- | --- | --- | --- | --- | --- |
| Full-length recombinant factor V R506Q (FV Leiden) (from UniProt P12259 29-2224) (natural protein) | 19.1 nM | 0.00457 s⁻¹ | 239000 M⁻¹ s⁻¹ | – | – | – | – | – | – | – | – | – |
| Full-length recombinant factor V A2086D (FV Besançon) (from UniProt P12259 29-2224) (natural protein) | 20.3 nM | 0.00268 s⁻¹ | 132000 M⁻¹ s⁻¹ | – | – | – | – | – | – | – | – | – |
| Protein S (natural protein, UniProt P07225 42-676, looked up) ANSLLEETKQGNLERECIEELCNKEEAREVFENDPETDYFYPKYLVCLRSFQTGLFTAARQSTNAYPDLRSCVNAIPDQCSPLPCNEDGYMSCKDGKASFTCTCKPGWQGEKCEFDINECKDPSNINGGCSQICDNTPGSYHCSCKNGFVMLSNKKDCKDVDECSLKPSICGTAVCKNIPGDFECECPEGYRYNLKSKSCEDIDECSENMCAQLCVNYPGGYTCYCDGKKGFKLAQDQKSCEVVSVCLPLNLDTKYELLYLAEQFAGVVLYLKFRLPEISRFSAEFDFRTYDSEGVILYAESIDHSAWLLIALRGGKIEVQLKNEHTSKITTGGDVINNGLWNMVSVEELEHSISIKIAKEAVMDINKPGPLFKPENGLLETKVYFAGFPRKVESELIKPINPRLDGCIRSWNLMKQGASGIKEIIQEKQNKHCLVTVEKGSYYPGSGIAQFHIDYNNVSSAEGWHVNVTLNIRPSTGTGVMLALVSGNNTVPFAVSLVDSTSEKSQDILLSVENTVIYRIQALSLCSDQQSHLEFRVNRNNLELSTPLKIETISHEDLQRQLAVLDKAMKAKVATYLGGLPDVPFSATPVNAFYNGCMEVNINGVQLDLDEAISKHNDIRAHSCPSVWKKTKNS | – | – | – | 7.56 nM | 0.00393 s⁻¹ | 520000 M⁻¹ s⁻¹ | 26.2 nM | 0.00382 s⁻¹ | 145000 M⁻¹ s⁻¹ | 5.26 nM | 0.00374 s⁻¹ | 711000 M⁻¹ s⁻¹ |

Further lines, results first:

| Kd [1] | koff [1] | kon [1] | Kd [2] | koff [2] | kon [2] | Kd [3] | koff [3] | kon [3] | Kd [4] | koff [4] | kon [4] | Molecule |
| --- | --- | --- | --- | --- | --- | --- | --- | --- | --- | --- | --- | --- |
| 10.7 nM | 0.00359 s⁻¹ | 337000 M⁻¹ s⁻¹ | – | – | – | – | – | – | – | – | – | Full-length wild-type recombinant factor V (FV-WT) (from UniProt P12259 29-2224) (natural protein) |
| 12.8 nM | 0.00433 s⁻¹ | 338000 M⁻¹ s⁻¹ | – | – | – | – | – | – | – | – | – | Full-length recombinant factor V W1920R (FV Nara) (from UniProt P12259 29-2224) (natural protein) |
